T1: LIN7A, O14910
T1 sequence (O14910 103-200, limits assumed, looked up): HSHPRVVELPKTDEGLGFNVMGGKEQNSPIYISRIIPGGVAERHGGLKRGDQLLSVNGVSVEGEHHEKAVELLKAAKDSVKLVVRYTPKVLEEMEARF

T2: RAPGEF6, Q8TEU7
T2 sequence (Q8TEU7 525-625, limits assumed, looked up): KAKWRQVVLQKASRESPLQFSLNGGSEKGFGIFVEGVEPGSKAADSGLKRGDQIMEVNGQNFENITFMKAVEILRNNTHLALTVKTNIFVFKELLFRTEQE

T3: LNX2_3, Q8N448
T3 sequence (Q8N448 463-564, limits assumed, looked up): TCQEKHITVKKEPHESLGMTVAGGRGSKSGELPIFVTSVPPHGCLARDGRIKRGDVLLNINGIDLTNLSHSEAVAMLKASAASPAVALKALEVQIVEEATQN

T4: PDZD2_2, O15018
T4 sequence (O15018 329-429, limits assumed, looked up): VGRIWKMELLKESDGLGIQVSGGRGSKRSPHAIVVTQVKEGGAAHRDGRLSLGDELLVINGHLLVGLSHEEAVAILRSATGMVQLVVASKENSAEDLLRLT

T5: NHERF3_4, Q5T2W1
T5 sequence (Q5T2W1 373-468, limits assumed, looked up): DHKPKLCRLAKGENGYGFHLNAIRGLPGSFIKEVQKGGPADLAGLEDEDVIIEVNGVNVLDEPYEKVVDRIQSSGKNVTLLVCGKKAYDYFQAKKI

T6: APBA1_2, Q02410
T6 sequence (Q02410 742-832, limits assumed, looked up): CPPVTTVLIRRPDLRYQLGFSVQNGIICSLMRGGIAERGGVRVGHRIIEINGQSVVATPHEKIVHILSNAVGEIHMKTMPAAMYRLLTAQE

T7: CARD11, Q9BXL7
T7 sequence (Q9BXL7 662-765, limits assumed, looked up): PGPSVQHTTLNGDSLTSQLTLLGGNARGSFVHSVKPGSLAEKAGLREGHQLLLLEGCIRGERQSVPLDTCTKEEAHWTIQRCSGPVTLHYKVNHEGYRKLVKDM

T8: SHANK1, Q9Y566
T8 sequence (Q9Y566 658-767, limits assumed, looked up): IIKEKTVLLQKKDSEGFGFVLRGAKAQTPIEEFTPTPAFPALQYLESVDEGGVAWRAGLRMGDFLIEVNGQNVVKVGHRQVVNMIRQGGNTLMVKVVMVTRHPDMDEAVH

T9: MPDZ_12, O75970
T9 sequence (O75970 1857-1958, limits assumed, looked up): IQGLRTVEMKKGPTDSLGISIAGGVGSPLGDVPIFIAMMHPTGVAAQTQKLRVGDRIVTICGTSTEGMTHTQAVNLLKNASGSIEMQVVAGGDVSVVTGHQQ


What was measured:
Test in all cases: holdup assay
Design in all cases: key: below the threshold = too weak to quantify, mostly under pKd 3.1 to 4
Settings in all cases: plain residues with an end cap or a label only (N-terminal biotin on a linker: ado-ado)
PARD3_3, Q8TEW0 = molecular target: PARD3_3, Q8TEW0
Chain of PARD3_3, Q8TEW0 (Q8TEW0 582-685): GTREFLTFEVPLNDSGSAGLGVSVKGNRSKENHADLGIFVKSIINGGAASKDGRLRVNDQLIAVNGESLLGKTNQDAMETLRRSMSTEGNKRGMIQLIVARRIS

LIN7A, O14910 = molecular target: T1, LIN7A, O14910
LNX1_3, Q8TBB1 = molecular target: LNX1_3, Q8TBB1
Chain of LNX1_3, Q8TBB1 (Q8TBB1 500-596): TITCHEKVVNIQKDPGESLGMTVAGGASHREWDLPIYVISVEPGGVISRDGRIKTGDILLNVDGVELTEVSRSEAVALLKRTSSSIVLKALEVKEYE

GRIP2_4, Q9C0E4 = molecular target: GRIP2_4, Q9C0E4
Chain of GRIP2_4, Q9C0E4 (Q9C0E4 446-548): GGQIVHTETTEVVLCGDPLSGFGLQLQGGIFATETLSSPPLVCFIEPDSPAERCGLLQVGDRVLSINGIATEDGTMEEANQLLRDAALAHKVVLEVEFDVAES

RAPGEF6, Q8TEU7 = molecular target: T2, RAPGEF6, Q8TEU7
LNX2_3, Q8N448 = molecular target: T3, LNX2_3, Q8N448
DLG4_3, P78352 = molecular target: DLG4_3, P78352
Chain of DLG4_3, P78352 (P78352 306-403): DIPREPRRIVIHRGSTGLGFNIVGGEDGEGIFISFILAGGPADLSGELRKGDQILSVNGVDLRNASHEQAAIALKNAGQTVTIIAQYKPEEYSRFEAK

PDZD2_2, O15018 = molecular target: T4, PDZD2_2, O15018
NHERF3_4, Q5T2W1 = molecular target: T5, NHERF3_4, Q5T2W1
DLG5_1, Q8TDM6 = molecular target: DLG5_1, Q8TDM6
Chain of DLG5_1, Q8TDM6 (Q8TDM6 617-713): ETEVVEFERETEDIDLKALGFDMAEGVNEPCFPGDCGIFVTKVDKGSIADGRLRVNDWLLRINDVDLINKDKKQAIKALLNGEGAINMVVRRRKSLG

APBA1_2, Q02410 = molecular target: T6, APBA1_2, Q02410
IL16_4, Q14005 = molecular target: IL16_4, Q14005
Chain of IL16_4, Q14005 (Q14005 1229-1329): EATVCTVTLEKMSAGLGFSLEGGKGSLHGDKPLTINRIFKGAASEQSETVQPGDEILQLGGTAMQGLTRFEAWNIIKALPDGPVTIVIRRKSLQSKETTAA

CARD11, Q9BXL7 = molecular target: T7, CARD11, Q9BXL7
SHANK1, Q9Y566 = molecular target: T8, SHANK1, Q9Y566
MPDZ_12, O75970 = molecular target: T9, MPDZ_12, O75970
Inadl_8, Q8NI35 = molecular target: Inadl_8, Q8NI35
Chain of Inadl_8, Q8NI35 (Q8NI35 1425-1530): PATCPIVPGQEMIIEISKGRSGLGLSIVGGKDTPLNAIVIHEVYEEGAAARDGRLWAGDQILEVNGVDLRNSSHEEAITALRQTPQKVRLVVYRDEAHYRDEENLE

SNX27, Q96L92 = molecular target: SNX27, Q96L92
Inadl_3, Q8NI35 = molecular target: Inadl_3, Q8NI35
Chain of Inadl_3, Q8NI35 (Q8NI35 359-469): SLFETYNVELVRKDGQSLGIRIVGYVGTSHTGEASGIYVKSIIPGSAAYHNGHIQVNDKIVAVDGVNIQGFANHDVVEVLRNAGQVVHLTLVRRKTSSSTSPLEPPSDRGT

GRASP, Q7Z6J2 = molecular target: GRASP, Q7Z6J2
Chain of GRASP, Q7Z6J2 (Q7Z6J2 96-193): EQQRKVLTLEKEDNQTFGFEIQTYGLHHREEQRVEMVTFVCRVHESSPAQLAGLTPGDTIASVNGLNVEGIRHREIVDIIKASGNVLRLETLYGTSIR

TJP2_1, Q9UDY2 = molecular target: TJP2_1, Q9UDY2
Chain of TJP2_1, Q9UDY2 (Q9UDY2 24-128): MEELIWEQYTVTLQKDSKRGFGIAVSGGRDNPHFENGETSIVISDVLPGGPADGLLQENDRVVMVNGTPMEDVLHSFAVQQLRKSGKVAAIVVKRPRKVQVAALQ

SCRIB_1, Q14160 = molecular target: SCRIB_1, Q14160
Chain of SCRIB_1, Q14160 (Q14160 718-814): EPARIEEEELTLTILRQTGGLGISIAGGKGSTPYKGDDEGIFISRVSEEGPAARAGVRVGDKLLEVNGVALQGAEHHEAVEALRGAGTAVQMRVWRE

MAGI1_1, Q96QZ7 = molecular target: MAGI1_1, Q96QZ7
Chain of MAGI1_1, Q96QZ7 (Q96QZ7 1-106): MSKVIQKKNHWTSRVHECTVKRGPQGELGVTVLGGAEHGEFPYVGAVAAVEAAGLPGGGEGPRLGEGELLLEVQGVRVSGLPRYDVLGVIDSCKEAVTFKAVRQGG

NHERF2_2, Q15599 = molecular target: NHERF2_2, Q15599
Chain of NHERF2_2, Q15599 (Q15599 142-238): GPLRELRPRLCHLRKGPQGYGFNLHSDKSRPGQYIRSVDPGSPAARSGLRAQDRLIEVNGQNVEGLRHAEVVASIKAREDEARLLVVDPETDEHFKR

HTRA2, O43464 = molecular target: HTRA2, O43464
Chain of HTRA2, O43464 (O43464 355-458): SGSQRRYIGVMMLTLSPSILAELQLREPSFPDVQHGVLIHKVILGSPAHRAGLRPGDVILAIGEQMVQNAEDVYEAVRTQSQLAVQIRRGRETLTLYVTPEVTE

LIMK2, P53671 = molecular target: LIMK2, P53671
Chain of LIMK2, P53671 (P53671 143-248): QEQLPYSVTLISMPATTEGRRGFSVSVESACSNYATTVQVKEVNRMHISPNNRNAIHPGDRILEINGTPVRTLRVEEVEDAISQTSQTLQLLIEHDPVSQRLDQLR

Inadl_9, Q8NI35 = molecular target: Inadl_9, Q8NI35
Chain of Inadl_9, Q8NI35 (Q8NI35 1530-1615): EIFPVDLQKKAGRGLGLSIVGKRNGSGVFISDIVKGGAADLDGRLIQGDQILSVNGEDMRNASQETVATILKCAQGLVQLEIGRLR

NHERF4_1, Q86UT5-2 = molecular target: NHERF4_1, Q86UT5-2
Chain of NHERF4_1, Q86UT5-2 (Q86UT5 other isoform, or with tags, fused parts or gaps): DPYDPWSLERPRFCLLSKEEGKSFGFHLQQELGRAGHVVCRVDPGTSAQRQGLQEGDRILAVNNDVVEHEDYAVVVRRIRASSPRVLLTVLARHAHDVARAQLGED

MAGI2_2, Q86UL8 = molecular target: MAGI2_2, Q86UL8
Chain of MAGI2_2, Q86UL8 (Q86UL8 410-522): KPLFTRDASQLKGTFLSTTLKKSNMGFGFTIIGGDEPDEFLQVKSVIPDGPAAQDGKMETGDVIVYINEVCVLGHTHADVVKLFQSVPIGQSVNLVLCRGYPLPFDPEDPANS

GRIP2_6, Q9C0E4 = molecular target: GRIP2_6, Q9C0E4
Chain of GRIP2_6, Q9C0E4 (Q9C0E4 648-740): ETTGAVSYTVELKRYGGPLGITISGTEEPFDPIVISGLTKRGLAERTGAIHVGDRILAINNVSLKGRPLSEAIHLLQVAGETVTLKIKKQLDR

Row | Binder | pKd (PARD3_3, Q8TEW0) | pKd (LIN7A, O14910) | pKd (LNX1_3, Q8TBB1) | pKd (GRIP2_4, Q9C0E4) | pKd (RAPGEF6, Q8TEU7) | pKd (LNX2_3, Q8N448) | pKd (DLG4_3, P78352) | pKd (PDZD2_2, O15018) | pKd (NHERF3_4, Q5T2W1) | pKd (DLG5_1, Q8TDM6) | pKd (APBA1_2, Q02410) | pKd (IL16_4, Q14005) | pKd (CARD11, Q9BXL7) | pKd (SHANK1, Q9Y566) | pKd (MPDZ_12, O75970) | pKd (Inadl_8, Q8NI35) | pKd (SNX27, Q96L92) | pKd (Inadl_3, Q8NI35) | pKd (GRASP, Q7Z6J2) | pKd (TJP2_1, Q9UDY2) | other results
1 | EWTDERQSKV [GAB3, Q8WWW8] | below the threshold | below the threshold | below the threshold | below the threshold | below the threshold | below the threshold | below the threshold | 5.23 | below the threshold | 3.66 | 3.63 | below the threshold | below the threshold | 3.88 | below the threshold | 4.02 | 4.72 | below the threshold | 3.84 | below the threshold | pKd (SCRIB_1, Q14160): below the threshold; pKd (MAGI1_1, Q96QZ7): below the threshold; pKd (NHERF2_2, Q15599): 3.8; pKd (HTRA2, O43464): below the threshold; pKd (LIMK2, P53671): below the threshold; pKd (Inadl_9, Q8NI35): 3.56; pKd (NHERF4_1, Q86UT5-2): below the threshold; pKd (MAGI2_2, Q86UL8): below the threshold; pKd (GRIP2_6, Q9C0E4): below the threshold
2 | HLRQQGSVEV [EPHB6, O15197] | below the threshold | below the threshold | below the threshold | below the threshold | below the threshold | below the threshold | below the threshold | below the threshold | below the threshold | below the threshold | 3.99 | below the threshold | below the threshold | below the threshold | below the threshold | below the threshold | 3.76 | below the threshold | below the threshold | below the threshold | pKd (SCRIB_1, Q14160): below the threshold; pKd (MAGI1_1, Q96QZ7): below the threshold; pKd (NHERF2_2, Q15599): below the threshold; pKd (HTRA2, O43464): below the threshold; pKd (LIMK2, P53671): below the threshold; pKd (Inadl_9, Q8NI35): 4.03; pKd (NHERF4_1, Q86UT5-2): 3.71; pKd (MAGI2_2, Q86UL8): below the threshold; pKd (GRIP2_6, Q9C0E4): 3.93
3 | NLQEHSTTSV [RSBN1, Q5VWQ0] | below the threshold | below the threshold | below the threshold | below the threshold | below the threshold | below the threshold | 3.59 | 4.52 | below the threshold | below the threshold | 3.58 | below the threshold | below the threshold | 3.91 | below the threshold | 3.81 | 5.48 | below the threshold | 4.51 | below the threshold | pKd (SCRIB_1, Q14160): 3.58; pKd (MAGI1_1, Q96QZ7): below the threshold; pKd (NHERF2_2, Q15599): 3.59; pKd (HTRA2, O43464): below the threshold; pKd (LIMK2, P53671): below the threshold; pKd (Inadl_9, Q8NI35): below the threshold; pKd (NHERF4_1, Q86UT5-2): below the threshold; pKd (MAGI2_2, Q86UL8): 3.89; pKd (GRIP2_6, Q9C0E4): below the threshold

Further lines, with some results ahead:

Row | pKd (PARD3_3, Q8TEW0) | pKd (LIN7A, O14910) | pKd (LNX1_3, Q8TBB1) | pKd (GRIP2_4, Q9C0E4) | pKd (RAPGEF6, Q8TEU7) | pKd (LNX2_3, Q8N448) | pKd (DLG4_3, P78352) | pKd (PDZD2_2, O15018) | pKd (NHERF3_4, Q5T2W1) | pKd (DLG5_1, Q8TDM6) | pKd (APBA1_2, Q02410) | pKd (IL16_4, Q14005) | pKd (CARD11, Q9BXL7) | pKd (SHANK1, Q9Y566) | pKd (MPDZ_12, O75970) | pKd (Inadl_8, Q8NI35) | pKd (SNX27, Q96L92) | pKd (Inadl_3, Q8NI35) | pKd (GRASP, Q7Z6J2) | pKd (TJP2_1, Q9UDY2) | Binder | other results
4 | below the threshold | below the threshold | below the threshold | below the threshold | below the threshold | below the threshold | below the threshold | 5.12 | below the threshold | below the threshold | below the threshold | below the threshold | below the threshold | 4.17 | below the threshold | below the threshold | below the threshold | below the threshold | 3.98 | below the threshold | FTLPAESSEI [PLEKHG7, Q6ZR37] | pKd (SCRIB_1, Q14160): below the threshold; pKd (MAGI1_1, Q96QZ7): below the threshold; pKd (NHERF2_2, Q15599): below the threshold; pKd (HTRA2, O43464): below the threshold; pKd (LIMK2, P53671): below the threshold; pKd (Inadl_9, Q8NI35): below the threshold; pKd (NHERF4_1, Q86UT5-2): below the threshold; pKd (MAGI2_2, Q86UL8): below the threshold; pKd (GRIP2_6, Q9C0E4): below the threshold
5 | below the threshold | 3.93 | below the threshold | below the threshold | below the threshold | below the threshold | 4.47 | 3.81 | below the threshold | below the threshold | 3.57 | below the threshold | below the threshold | below the threshold | below the threshold | 3.65 | 5.4 | 3.97 | 3.72 | below the threshold | TGLWKSETTV [ADGRA2, Q96PE1] | pKd (SCRIB_1, Q14160): 4.34; pKd (MAGI1_1, Q96QZ7): 3.55; pKd (NHERF2_2, Q15599): below the threshold; pKd (HTRA2, O43464): below the threshold; pKd (LIMK2, P53671): below the threshold; pKd (Inadl_9, Q8NI35): 3.75; pKd (NHERF4_1, Q86UT5-2): below the threshold; pKd (MAGI2_2, Q86UL8): 5.37; pKd (GRIP2_6, Q9C0E4): below the threshold
